# Key:
# [1] = target: human activated Factor X (human) (UniProt P00742); assay: cell-based or functional assay
# [2] = target: human plasma-derived Factor X zymogen (human) (UniProt P00742); assay: cell-based or functional assay
# [3] = target: human plasma-derived Factor X zymogen (human) (UniProt P00742); assay: apparent KD fitted from FXa generation assay
# Chain of human plasma-derived Factor X zymogen (human) (P00742 41-179, chain 1 of 2): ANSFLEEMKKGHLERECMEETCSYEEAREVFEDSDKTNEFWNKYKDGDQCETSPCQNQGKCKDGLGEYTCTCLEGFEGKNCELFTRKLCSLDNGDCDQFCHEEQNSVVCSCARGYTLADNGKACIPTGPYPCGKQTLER
# Chain of human plasma-derived Factor X zymogen (human) (P00742 183-488, chain 2 of 2): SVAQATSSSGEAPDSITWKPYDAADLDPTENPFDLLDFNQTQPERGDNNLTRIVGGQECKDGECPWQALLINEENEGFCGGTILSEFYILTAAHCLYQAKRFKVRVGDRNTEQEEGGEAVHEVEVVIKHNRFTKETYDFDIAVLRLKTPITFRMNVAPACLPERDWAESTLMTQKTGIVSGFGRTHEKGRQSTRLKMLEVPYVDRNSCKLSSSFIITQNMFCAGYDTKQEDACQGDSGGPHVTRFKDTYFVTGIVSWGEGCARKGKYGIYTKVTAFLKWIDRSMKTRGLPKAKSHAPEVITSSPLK
# Chain of human activated Factor X (human) (P00742 41-179, chain 1 of 2): as the sequence (P00742 41-179, chain 1 of 2) above
# Chain of human activated Factor X (human) (P00742 235-488, chain 2 of 2): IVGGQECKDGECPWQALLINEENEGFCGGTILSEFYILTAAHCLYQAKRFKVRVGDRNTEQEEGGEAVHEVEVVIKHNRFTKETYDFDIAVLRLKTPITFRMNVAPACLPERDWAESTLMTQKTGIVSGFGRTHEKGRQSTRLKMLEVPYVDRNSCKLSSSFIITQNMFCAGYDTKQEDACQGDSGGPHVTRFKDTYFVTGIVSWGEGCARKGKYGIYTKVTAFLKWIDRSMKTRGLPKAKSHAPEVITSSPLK
substance,measurement,setting,value
Fab ACE910 anti-FX (J327/L404-k),"FXa amidolytic activity (relative to free FXa, fold)",[1],1.02 fold
same,Increase in FX activation (fold),[2],< 0.6 fold
same,Kd,[3],3.9 µM
